Source: patent US20240067751A1 (KEYMED BIOSCIENCES, published 2024)

Tests used:
MASP-2 in human serum [1] = molecular target: T1, MASP-2 in human serum (human, UniProt O00187 16-686); experiment: cell-based or functional assay
MASP-2 in human serum [2] = molecular target: T1, MASP-2 in human serum; experiment: cell-based or functional assay; remark: listed apart in the source

T1 sequence (O00187 16-686 limits assumed): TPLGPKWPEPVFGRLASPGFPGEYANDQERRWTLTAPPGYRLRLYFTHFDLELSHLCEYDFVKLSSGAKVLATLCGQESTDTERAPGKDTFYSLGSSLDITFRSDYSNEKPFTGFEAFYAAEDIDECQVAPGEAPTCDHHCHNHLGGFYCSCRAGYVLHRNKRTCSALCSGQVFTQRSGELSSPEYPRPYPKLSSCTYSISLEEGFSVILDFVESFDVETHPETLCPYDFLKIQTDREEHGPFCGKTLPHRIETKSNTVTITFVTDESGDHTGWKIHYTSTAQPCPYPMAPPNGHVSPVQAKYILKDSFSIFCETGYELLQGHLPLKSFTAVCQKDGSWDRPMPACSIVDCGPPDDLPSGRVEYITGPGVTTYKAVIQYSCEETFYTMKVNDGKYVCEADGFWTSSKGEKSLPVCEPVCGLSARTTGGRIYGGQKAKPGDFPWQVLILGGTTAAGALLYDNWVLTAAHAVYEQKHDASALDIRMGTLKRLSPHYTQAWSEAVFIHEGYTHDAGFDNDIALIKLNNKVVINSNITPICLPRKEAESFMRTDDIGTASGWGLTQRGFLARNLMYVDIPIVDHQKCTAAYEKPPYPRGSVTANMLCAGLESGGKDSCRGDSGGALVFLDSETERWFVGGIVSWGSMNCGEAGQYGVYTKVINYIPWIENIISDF

| Binder | IC50, inhibition of C3b deposition (MASP-2 in human serum [1]) [nM] | IC50, inhibition of C4b deposition (MASP-2 in human serum [2]) [nM] |
| --- | --- | --- |
| h3H6 H1K1 (antibody, V domains shown) VH: QVQLVQSGAEVKKPGSSVKVSCKASGYTFATYSIHWVRQAPGQGLEWMGYINPSSGYTNYNQKFQGRVTLTADKSTSTAYMELSSLRSEDTAVYYCARVYYTFYHAMDYWGQGTTVTVSS VL: DIQMTQSPSSLSASVGDRVTITCRASQDVNTAVAWYQQKPGKAPKLLIYSASYRYTGVPSRFSGSGSGTDFTLTISSLQPEDFATYYCQQHYNIPLTFGGGTKVEIK | 0.03 | 0.014 |
| h3H6 H4K1 (antibody, V domains shown) VH: QVQLVQSGAEVKKPGSSVKVSCKASGYTFATYSIHWVRQAPGQGLEWMGYINPSSGYTNYNQKFQGRVTITADESTSTAYMELSSLRSEDTAVYYCARVYYTFYHAMDYWGQGTTVTVSS VL: DIQMTQSPSSLSASVGDRVTITCRASQDVNTAVAWYQQKPGKAPKLLIYSASYRYTGVPSRFSGSGSGTDFTLTISSLQPEDFATYYCQQHYNIPLTFGGGTKVEIK | 0.151 | 0.09 |
| h3H6 H2K1 (antibody, V domains shown) VH: QVQLVQSGAEVKKPGSSVKVSCKASGYTFATYSIHWVRQAPGQGLEWMGYINPSSGYTNYNQKFQGRVTLTADESTSTAYMELSSLRSEDTAVYYCARVYYTFYHAMDYWGQGTTVTVSS VL: DIQMTQSPSSLSASVGDRVTITCRASQDVNTAVAWYQQKPGKAPKLLIYSASYRYTGVPSRFSGSGSGTDFTLTISSLQPEDFATYYCQQHYNIPLTFGGGTKVEIK | 0.151 | 0.086 |
| h3H6 H3K1 (antibody, V domains shown) VH: QVQLVQSGAEVKKPGSSVKVSCKASGYTFATYSIHWVRQAPGQGLEWMGYINPSSGYTNYNQKFQGRVTITADKSTSTAYMELSSLRSEDTAVYYCARVYYTFYHAMDYWGQGTTVTVSS VL: DIQMTQSPSSLSASVGDRVTITCRASQDVNTAVAWYQQKPGKAPKLLIYSASYRYTGVPSRFSGSGSGTDFTLTISSLQPEDFATYYCQQHYNIPLTFGGGTKVEIK | 0.034 | 0.017 |
| h28O14 H1K1 (antibody, V domains shown) VH: QVQLVQSGAEVKKPGSSVKVSCKASGYTFRSHTMHWVRQAPGQGLEWMGYINPSTGYINYNQKFQGRVTLTADKSTSTAYMELSSLRSEDTAVYYCARSNYAYYYGMDYWGQGTTVTVSS VL: DIQMTQSPSSLSASVGDRVTITCRASQDVNTAVAWYQQKPGKAPKLLIYSASYRYTGVPSRFSGSGSGTDFTLTISSLQPEDFATYYCQQHYNIPLTFGGGTKVEIK | 0.146 | 0.083 |
| h16B11 H1K4 (antibody, V domains shown) VH: QMQLQESGPGLVKPSETLSLTCTVSGYSITSDYAWNWIRQPPGKGLEWIGYISYSGRTSYNPSLKSRVTISRDTSKNQFSLKLSSVTAADTAVYYCARHYGDYWGQGTLVTVSS VL: EIVMTQSPATLSVSPGERATLSCRASQNVGTNVAWYQQKPGQAPRALIYSASYRESGIPARFSGSGSGTEFTLTISSLQSEDFAVYFCQQFNTNPLTFGGGTKVEIK | 0.015 |  |
| h16B11 H2K6 (antibody, V domains shown) VH: QLQLQESGPGLVKPSETLSLTCTVSGYSITSDYAWNWIRQPPGKGLEWIGYISYSGRTSYNPSLKSRVTISRDTSKNQFSLKLSSVTAADTAVYYCARHYGDYWGQGTLVTVSS VL: EIVMTQSPATLSVSPGERATLSCRASQNVGTNVAWYQQKPGQAPRALIYSASYRQSGIPARFSGSGSGTEFTLTISSLQSEDFAVYFCQQFNTNPLTFGGGTKVEIK | 0.018 |  |
| h16B11 H3K5 (antibody, V domains shown) VH: QLQLQESGPGLVKPSETLSLTCTVSGYSITSDYAWNWIRQPPGKGLEWIGYISYSGRTSYNPSLKSRVTISVDTSKNQFSLKLSSVTAADTAVYYCARHYGDYWGQGTLVTVSS VL: EIVMTQSPATLSVSPGERATLSCRASQNVGTNVAWYQQKPGQAPRLLIYSASYRESGIPARFSGSGSGTEFTLTISSLQSEDFAVYFCQQFNTNPLTFGGGTKVEIK | 0.44 |  |
| h16B11 H2K4 (antibody, V domains shown) VH: QLQLQESGPGLVKPSETLSLTCTVSGYSITSDYAWNWIRQPPGKGLEWIGYISYSGRTSYNPSLKSRVTISRDTSKNQFSLKLSSVTAADTAVYYCARHYGDYWGQGTLVTVSS VL: EIVMTQSPATLSVSPGERATLSCRASQNVGTNVAWYQQKPGQAPRALIYSASYRESGIPARFSGSGSGTEFTLTISSLQSEDFAVYFCQQFNTNPLTFGGGTKVEIK | 0.015 |  |
| h16B11 H3K4 (antibody, V domains shown) VH: QLQLQESGPGLVKPSETLSLTCTVSGYSITSDYAWNWIRQPPGKGLEWIGYISYSGRTSYNPSLKSRVTISVDTSKNQFSLKLSSVTAADTAVYYCARHYGDYWGQGTLVTVSS VL: EIVMTQSPATLSVSPGERATLSCRASQNVGTNVAWYQQKPGQAPRALIYSASYRESGIPARFSGSGSGTEFTLTISSLQSEDFAVYFCQQFNTNPLTFGGGTKVEIK | 0.052 |  |
| h16B11 H3K6 (antibody, V domains shown) VH: QLQLQESGPGLVKPSETLSLTCTVSGYSITSDYAWNWIRQPPGKGLEWIGYISYSGRTSYNPSLKSRVTISVDTSKNQFSLKLSSVTAADTAVYYCARHYGDYWGQGTLVTVSS VL: EIVMTQSPATLSVSPGERATLSCRASQNVGTNVAWYQQKPGQAPRALIYSASYRQSGIPARFSGSGSGTEFTLTISSLQSEDFAVYFCQQFNTNPLTFGGGTKVEIK | 0.071 |  |
| h16B11 H2K5 (antibody, V domains shown) VH: QLQLQESGPGLVKPSETLSLTCTVSGYSITSDYAWNWIRQPPGKGLEWIGYISYSGRTSYNPSLKSRVTISRDTSKNQFSLKLSSVTAADTAVYYCARHYGDYWGQGTLVTVSS VL: EIVMTQSPATLSVSPGERATLSCRASQNVGTNVAWYQQKPGQAPRLLIYSASYRESGIPARFSGSGSGTEFTLTISSLQSEDFAVYFCQQFNTNPLTFGGGTKVEIK | 0.032 |  |
| h16B11 H1K5 (antibody, V domains shown) VH: QMQLQESGPGLVKPSETLSLTCTVSGYSITSDYAWNWIRQPPGKGLEWIGYISYSGRTSYNPSLKSRVTISRDTSKNQFSLKLSSVTAADTAVYYCARHYGDYWGQGTLVTVSS VL: EIVMTQSPATLSVSPGERATLSCRASQNVGTNVAWYQQKPGQAPRLLIYSASYRESGIPARFSGSGSGTEFTLTISSLQSEDFAVYFCQQFNTNPLTFGGGTKVEIK | 0.024 |  |
| h16B11 H1K6 (antibody, V domains shown) VH: QMQLQESGPGLVKPSETLSLTCTVSGYSITSDYAWNWIRQPPGKGLEWIGYISYSGRTSYNPSLKSRVTISRDTSKNQFSLKLSSVTAADTAVYYCARHYGDYWGQGTLVTVSS VL: EIVMTQSPATLSVSPGERATLSCRASQNVGTNVAWYQQKPGQAPRALIYSASYRQSGIPARFSGSGSGTEFTLTISSLQSEDFAVYFCQQFNTNPLTFGGGTKVEIK | 0.018 |  |
